Data reported in patent US20090053807A1 (Novo Nordisk A/S, priority 1998, published 2009).

Legend:
[1] = target: insulin receptor construct transfected into 32D cells (Homo sapiens, UniProt P06213); assay: IR autophosphorylation assay in IR transfected 32D cells (ELISA); settings: MBP fusion peptides, FIG. 30
MCF-7 cells = assay: MCF-7 cell proliferation assay, agonist format; type: cell-based, human; settings: MCF-7 and MiaPaCa cell proliferation (Tables 27-28)

| Molecule | stimulation of autophosphorylation of IR [1] | IGF-1R agonist activity (MCF-7 cells) |
| --- | --- | --- |
| RP30-IGF-12-D112: dimer peptide (Site 1-Site 1) (peptide) ADYKDSFYSCLESLVNGGAERSDGQWEGCRGGSGGSGGSGGSCWARPCGDAANFYDWFVQQASKKAAAGAPVPYPDPLEPRPG |  | IGF-1R agonist activity |
| D112-12-RP30-IGF: dimer peptide (Site 1-Site 1) (peptide) ADYKDCWARPCGDAANFYDWFVQQASKKGGSGGSGGSGGSSFYSCLESLVNGGAERSDGQWEGCRAAAGAPVPYPDPLEPRPG |  | IGF-1R agonist activity |

The next lines start with results.

| stimulation of autophosphorylation of IR [1] | Molecule | IGF-1R agonist activity (MCF-7 cells) |
| --- | --- | --- |
| active | H2C-9aa-H2C: MBP fusion, H2C dimer peptide with 9 amino acid linker (protein, left off: large carriers; small tags and cut ends) NNNNLGIEGRISEFIEGRAQPAMAFHENFYDWFVRQVSGGSGGSGGSFHENFYDWFVRQVSAAAGAPVPYPDPLEPRAA |  |
| active | H2C-3aa-H2C: MBP fusion, H2C dimer peptide (Site 1-Site 1) with 3 amino acid linker (protein, left off: large carriers; small tags and cut ends) NNNNLGIEGRISEFIEGRAQPAMAFHENFYDWFVRQVSGGSFHENFYDWFVRQVSAAAGAPVPYPDPLEPRAA |  |
